First the molecules themselves.
B1: dBBDu183H H93V / dBBDu072L (antibody, name in Kabat numbering, V domains shown)
VH: QVQLVESGGGLVQPGRSLRLSCAASGFTFSNAWMHWVRQAPGKGLEWVAQIKDKGNAYAAYYAPSVKGRFTISRDDSKNSIYLQMNSLKTEDTAVYYCVYVHYASASTVLPAFGVDAWGQGTTVTVSS
VL: DIVMTQSPLSLPVTPGEPASISCQASQELVHMNRNTYLHWYQQKPGQAPRLLIYKVSNRFPGVPDRFSGSGSGTDFTLKISRVEAEDVGVYYCAQGTSVPFTFGQGTKLEIK
B2: dBBDu183H V95Q / dBBDu072L (antibody, name in Kabat numbering, V domains shown)
VH: B1 VH with V99H, V101Q
VL: B1 VL
B3: dBBDu183H P100eV / dBBDu072L (antibody, name in Kabat numbering, V domains shown)
VH: B1 VH with V99H, P111V
VL: B1 VL
B4: dBBDu183H A98V / dBBDu072L (antibody, name in Kabat numbering, V domains shown)
VH: B1 VH with V99H, A104V
VL: B1 VL
B5: dBBDu183H D101V / dBBDu072L (antibody, name in Kabat numbering, V domains shown)
VH: B1 VH with V99H, D116V
VL: B1 VL
B6: dBBDu183H T100bG / dBBDu072L (antibody, name in Kabat numbering, V domains shown)
VH: B1 VH with V99H, T108G
VL: B1 VL
B7: dBBDu183H H96Q / dBBDu072L (antibody, name in Kabat numbering, V domains shown)
VH: B1 VH with V99H, H102Q
VL: B1 VL
B8: dBBDu183H S99V / dBBDu072L (antibody, name in Kabat numbering, V domains shown)
VH: B1 VH with V99H, S105V
VL: B1 VL
B9: dBBDu183H S100aV / dBBDu072L (antibody, name in Kabat numbering, V domains shown)
VH: B1 VH with V99H, S107V
VL: B1 VL
B10: dBBDu183H G100hV / dBBDu072L (antibody, name in Kabat numbering, V domains shown)
VH: B1 VH with V99H, G114V
VL: B1 VL
B11: dBBDu183H V100iN / dBBDu072L (antibody, name in Kabat numbering, V domains shown)
VH: B1 VH with V99H, V115N
VL: B1 VL
B12: dBBDu183H A100fN / dBBDu072L (antibody, name in Kabat numbering, V domains shown)
VH: B1 VH with V99H, A112N
VL: B1 VL
B13: dBBDu183H S99N / dBBDu072L (antibody, name in Kabat numbering, V domains shown)
VH: B1 VH with V99H, S105N
VL: B1 VL
B14: dBBDu183H A100fV / dBBDu072L (antibody, name in Kabat numbering, V domains shown)
VH: B1 VH with V99H, A112V
VL: B1 VL
B15: dBBDu183H A98Q / dBBDu072L (antibody, name in Kabat numbering, V domains shown)
VH: B1 VH with V99H, A104Q
VL: B1 VL
B16: dBBDu183H S100aN / dBBDu072L (antibody, name in Kabat numbering, V domains shown)
VH: B1 VH with V99H, S107N
VL: B1 VL
B17: dBBDu183H Y94V / dBBDu072L (antibody, name in Kabat numbering, V domains shown)
VH: B1 VH with V99H, Y100V
VL: B1 VL
B18: dBBDu183H Y97Q / dBBDu072L (antibody, name in Kabat numbering, V domains shown)
VH: B1 VH with V99H, Y103Q
VL: B1 VL
B19: dBBDu183H V95G / dBBDu072L (antibody, name in Kabat numbering, V domains shown)
VH: B1 VH with V99H, V101G
VL: B1 VL
B20: dBBDu183H V100cG / dBBDu072L (antibody, name in Kabat numbering, V domains shown)
VH: B1 VH with V99H, V109G
VL: B1 VL
B21: dBBDu183H S100aG / dBBDu072L (antibody, name in Kabat numbering, V domains shown)
VH: B1 VH with V99H, S107G
VL: B1 VL
B22: dBBDu183H V100iG / dBBDu072L (antibody, name in Kabat numbering, V domains shown)
VH: B1 VH with V99H, V115G
VL: B1 VL
B23: dBBDu183H A102N / dBBDu072L (antibody, name in Kabat numbering, V domains shown)
VH: B1 VH with V99H, A117N
VL: B1 VL
B24: dBBDu183H H93G / dBBDu072L (antibody, name in Kabat numbering, V domains shown)
VH: B1 VH with V99G
VL: B1 VL
B25: dBBDu183H G100hN / dBBDu072L (antibody, name in Kabat numbering, V domains shown)
VH: B1 VH with V99H, G114N
VL: B1 VL
B26: dBBDu183H T100bV / dBBDu072L (antibody, name in Kabat numbering, V domains shown)
VH: B1 VH with V99H, T108V
VL: B1 VL
B27: dBBDu183H A102V / dBBDu072L (antibody, name in Kabat numbering, V domains shown)
VH: B1 VH with V99H, A117V
VL: B1 VL
B28: dBBDu183H L100dG / dBBDu072L (antibody, name in Kabat numbering, V domains shown)
VH: B1 VH with V99H, L110G
VL: B1 VL
B29: dBBDu183H V100cN / dBBDu072L (antibody, name in Kabat numbering, V domains shown)
VH: B1 VH with V99H, V109N
VL: B1 VL
B30: dBBDu183H L100dN / dBBDu072L (antibody, name in Kabat numbering, V domains shown)
VH: B1 VH with V99H, L110N
VL: B1 VL
B31: dBBDu183H Y97G / dBBDu072L (antibody, name in Kabat numbering, V domains shown)
VH: B1 VH with V99H, Y103G
VL: B1 VL
B32: dBBDu183H A98N / dBBDu072L (antibody, name in Kabat numbering, V domains shown)
VH: B1 VH with V99H, A104N
VL: B1 VL
B33: dBBDu183H F100gN / dBBDu072L (antibody, name in Kabat numbering, V domains shown)
VH: B1 VH with V99H, F113N
VL: B1 VL
B34: dBBDu183H A98G / dBBDu072L (antibody, name in Kabat numbering, V domains shown)
VH: B1 VH with V99H, A104G
VL: B1 VL
B35: dBBDu183H F100gG / dBBDu072L (antibody, name in Kabat numbering, V domains shown)
VH: B1 VH with V99H, F113G
VL: B1 VL
B36: dBBDu183H Y94G / dBBDu072L (antibody, name in Kabat numbering, V domains shown)
VH: B1 VH with V99H, Y100G
VL: B1 VL
B37: dBBDu183H Y97N / dBBDu072L (antibody, name in Kabat numbering, V domains shown)
VH: B1 VH with V99H, Y103N
VL: B1 VL
B38: dBBDu183H D101G / dBBDu072L (antibody, name in Kabat numbering, V domains shown)
VH: B1 VH with V99H, D116G
VL: B1 VL
B39: dBBDu183H A100V / dBBDu072L (antibody, name in Kabat numbering, V domains shown)
VH: B1 VH with V99H, A106V
VL: B1 VL
B40: dBBDu183H Y97V / dBBDu072L (antibody, name in Kabat numbering, V domains shown)
VH: B1 VH with V99H, Y103V
VL: B1 VL
B41: dBBDu183H H96N / dBBDu072L (antibody, name in Kabat numbering, V domains shown)
VH: B1 VH with V99H, H102N
VL: B1 VL
B42: dBBDu183H V95N / dBBDu072L (antibody, name in Kabat numbering, V domains shown)
VH: B1 VH with V99H, V101N
VL: B1 VL
B43: dBBDu183H H96G / dBBDu072L (antibody, name in Kabat numbering, V domains shown)
VH: B1 VH with V99H, H102G
VL: B1 VL
B44: dBBDu183H H93Q / dBBDu072L (antibody, name in Kabat numbering, V domains shown)
VH: B1 VH with V99Q
VL: B1 VL

Changes are numbered by the printed parent chain. Numbers in names are those of the source.

The target of this test is Human CD137 ECD (human). The test is described as follows: SPR, vs parent H183/L072. (In general: Surface plasmon resonance follows binding to a sensor surface in real time, without labels.)
Human CD137 ECD (human), sequence (chain, as listed by the source limits assumed): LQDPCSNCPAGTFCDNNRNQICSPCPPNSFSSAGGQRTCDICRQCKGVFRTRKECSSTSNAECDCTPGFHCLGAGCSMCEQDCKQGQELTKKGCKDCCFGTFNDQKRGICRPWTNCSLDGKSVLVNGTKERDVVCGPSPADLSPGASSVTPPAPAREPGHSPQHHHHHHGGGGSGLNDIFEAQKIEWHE
As for B1, the fold change of affinity was determined as 0 fold.

Turning to B2, the fold change of affinity is 0 fold.

Turning to B3, the fold change of affinity is 0 fold.

Take B4: the fold change of affinity is 0 fold.

In the case of B5, the fold change of affinity worked out at 0 fold.

Turning to B6, the fold change of affinity was 0 fold.

With B7, the fold change of affinity was 0 fold.

In the case of B8, the fold change of affinity worked out at 0 fold.

With B9, the fold change of affinity stood at 0 fold.

Turning to B10, the fold change of affinity was determined as 0 fold.

Regarding B11, the fold change of affinity amounted to 0 fold.

B12: the fold change of affinity was determined as 0 fold.

As to B13, the fold change of affinity was 0 fold.

In the case of B14, the fold change of affinity was found to be 0 fold.

Consider B15, for which the fold change of affinity came out at 0 fold.

As for B16, the fold change of affinity is 0 fold.

In the case of B17, the fold change of affinity came to 0 fold.

As for B18, the fold change of affinity turned out to be 0 fold.

As to B19, the fold change of affinity stood at 0 fold.

For the molecule B20, the fold change of affinity turned out to be 0 fold.

With B21, the fold change of affinity was 0 fold.

As to B22, the fold change of affinity stood at 0 fold.

As to B23, the fold change of affinity stood at 0 fold.

For B24, the fold change of affinity was 0 fold.

Take B25: the fold change of affinity was 0 fold.

For B26, the fold change of affinity came out at 0 fold.

Turning to B27, the fold change of affinity stood at 0 fold.

For B28, the fold change of affinity worked out at 0 fold.

For B29, the fold change of affinity was found to be 0 fold.

Regarding B30, the fold change of affinity was found to be 0 fold.

B31: the fold change of affinity is 0 fold.

B32: the fold change of affinity is 0 fold.

For the molecule B33, the fold change of affinity was determined as 0 fold.

Regarding B34, the fold change of affinity came to 0 fold.

For the molecule B35, the fold change of affinity was 0 fold.

Take B36: the fold change of affinity turned out to be 0 fold.

On to B37, for which the fold change of affinity came out at 0 fold.

Consider B38, for which the fold change of affinity worked out at 0 fold.

Consider B39, for which the fold change of affinity stood at 0 fold.

B40: the fold change of affinity was 0 fold.

B41: the fold change of affinity was found to be 0 fold.

For the molecule B42, the fold change of affinity worked out at 0 fold.

As for B43, the fold change of affinity was 0 fold.

In the case of B44, the fold change of affinity is 0 fold.
